T1: Recombinant human IL-23 receptor (IL-23R) extracellular domain (ECD) protein (human, UniProt Q5VWK5 24-355)
T1 construct: also called human IL-23R ECD; hu IL-23R ECD
T1 sequence: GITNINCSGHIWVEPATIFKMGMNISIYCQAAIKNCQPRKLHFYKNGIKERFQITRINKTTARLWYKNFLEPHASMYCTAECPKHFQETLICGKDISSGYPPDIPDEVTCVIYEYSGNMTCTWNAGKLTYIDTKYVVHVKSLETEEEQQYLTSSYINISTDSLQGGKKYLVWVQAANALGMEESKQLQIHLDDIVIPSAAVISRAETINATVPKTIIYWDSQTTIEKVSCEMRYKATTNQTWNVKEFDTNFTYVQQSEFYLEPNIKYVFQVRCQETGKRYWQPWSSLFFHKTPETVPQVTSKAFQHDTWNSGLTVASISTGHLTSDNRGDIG

B1: I23RB321 (antibody, mouse IgG2a, kappa, V domains shown)
VH: QVQLVQSGAEVKKPGSSVKVSCKASGGTFSSYGISWVRQAPGQGLEWMGWISAIFGTTNYAQKFQGRVTITADESTSTAYMELSSLRSEDTAVYYCARHWLQSFDYWGQGTLVTVSS
VL: DIQMTQSPSSLSASVGDRVTITCRASQSIGGDLNWYQQKPGKAPKLLIYAASSLQSGVPSRFSGSGSGTDFTLTISSLQPEDFATYYCQQSYSTPLTFGQGTKVEIKR
notes: phage display; human V regions, mouse IgG2a/kappa constant regions
B2: I23RB264 (antibody, mouse IgG2a, kappa, V domains shown)
VH: B1 VH with G33A, W50G, S52I, A53P, T58A, H99R, W100S, L101S, Q102P, S103G
VL: B1 VL with G30D, G31N, A50N, S91P, T94I
notes: as for B1
B3: I23RB319 (antibody, mouse IgG2a, kappa, V domains shown)
VH: B1 VH with V93L, H99P, W100L, L101K, S103A
VL: B1 VL with G30T, G31D
notes: as for B1
B4: I23RB261 (antibody, mouse IgG2a, kappa, V domains shown)
VH: B1 VH with G33A, A53P, I54Y, T58A, H99M, W100Y, L101R, S103G
VL: B1 VL with G30N, G31D
notes: as for B1
B5: I23RB259 (antibody, mouse IgG2a, kappa, V domains shown)
VH: B1 VH with A53P, H99M, W100M, L101M, F104L
VL: not shown
notes: as for B1
B6: I23RB317 (antibody, mouse IgG2a, kappa, V domains shown)
VH: QVQLVQSGAEVKKPGSSVKVSCKASGGTFSSYAISWVRQAPGQGLEWMGGIIPIFGTANYAQKFQGRVTITADESTSTAYMELSSLRSEDTAVYYCARGNGVNYHSELDYWGQGTLVTVSS
VL: EIVLTQSPATLSLSPGERATLSCRASQSVDSFLAWYQQKPGQAPRLLIYTASNRATGIPARFSGSGSGTDFTLTISSLEPEDFAVYYCQQGNSAPFTFGQGTKVEIKR
notes: as for B1
B7: I23RB31 (antibody, mouse IgG2a, kappa, V domains shown)
VH: EFQLQQSGAEMVRPGASVKLSCKASGYTFTGYWMNWVKQRPGQGLEWIGKIDPSDTETHYNQNFKDKATLTVDKSSSTAYMQLNSLTSEDSAVYYCARWGLGRNFAMDYWGQGTTLTVSS
VL: DIVLTQSPATLSVTPGDRVSLSCRASQSISDHLHWYQQKSHESPRLLIKFASQSISGIPSRFSGSGSGSDFTLSIDSVEPEDVGVYYCQNGHSFPLTFGSGTKLEIKR
notes: mouse immunization; mouse IgG2a/kappa
B8: I23RB85 (antibody, mouse IgG2a, kappa, V domains shown)
VH: DVQLQESGPGLVAPSQSLSITCTVSGFSFNTYAITWVRQPPGRGLEWLGVLWPGGGISYNLALKSRLTISRDSSKSQVFLEMNSLQTDDTARYYCARNWRHYDGSYAMDFWGQGTSVTVSS
VL: DIVLTQSPLSLFVSLGDQASISCRSSQSLVHSNGNTYLHWYLQKPGQSPKLLIYKVSNRFSGVPDRFSGSGSGTDFTLKISRVEAEDLGVYFCSQSTHVPWTFGGGTRLEIKR
notes: as for B7
B9: I23RB91 (antibody, mouse IgG2a, kappa, V domains shown)
VH: EFQLQQFGPELLKPGASVKISCKASGYTFTDYIMHWVKQSHGKSLEWIGGISPNYGGTGYNGKFKDKATLTVDKSSSTAYMELRSLTSEDSAVYYCARFNNYYYFDYWGQGTTLTVSS
VL: DIKMTQSPSSMYASLGERVTITCKASQDINSYLSWCQQKPGKSPKALIYRANSLVDGVPSRFSGSGSGQDYSLTISSLEYEDMGIYYCLQYDEFPYTFGGGTKLEMKR
notes: as for B7
B10: I23RB177 (antibody, mouse IgG2a, kappa, V domains shown)
VH: EVQLQQSGPELLKPGASVKISCKASGYTITDYTMHWVKQSHGKSLEWIGGINPNYGGTSYNEKFKDKATLTVDKSSSTAYMELRSLTSEDSAVFYCVRGNIYFDYWGQGTTLTVSS
VL: B9 VL with D1N, I2T, K3Q, C36F, S53R, L89Q, Y96R, G100A, M106L
notes: as for B7
B11: I23RB161 (antibody, mouse IgG2a, kappa, V domains shown)
VH: EFQLQQSGPELVKPGASVKISCKASVYAFSSSWMNWVKQRPGKGLEWIGRIYPGDGDTNYNGKFKGKATLTADKSSSTAYMQLSSLTSEDSAVYFCARRYDFGSAMDYWGQGTSVTVSS
VL: DIVMTQSPAILSASPGEKVTMTCRASSSVSYMHWYQQKPGSSPKPWIYATSDLASGAPARFSGSGSGTSYSLTISRVEAEDAATYYCQQWSSNPPTFGGGTKLEIKR
notes: as for B7
B12: I23RB180 (antibody, mouse IgG2a, kappa, V domains shown)
VH: QVTLKESGPGILQPSQTLSLTCSFSGFSLSTYGMGVGWIRQPSGKGLEWLANIWWNDSKYHNAALKSRLTISKDTSKNQVFLKIASVDTADTATYYCGRIDGYYECVDVWGTGTSVTVSS
VL: DIQMTQSPASLSASVGETVTITCRASVNIHNYLAWYQQKQGKSPQLLVYNAKTLADGVPSRFSGSGSGTQYSLKINSLQPEDFGSYYCQHFWTTPYMYTFGAGTKLELKR
notes: as for B7
B13: I23RB69 (antibody, mouse IgG2a, kappa, V domains shown)
VH: EVQLQQSGAELVKPGASVKISCKASGYSFTGYNMNWVKQSHGKSLEWIGNINPFYDKTSYNQKFKGKATLTVDKASSTAYMQLNSLTSEDSAVYYCARQLGLKGFAYWGQGTLVTVSA
VL: DIVMTQSHKFMSTSVGDRVSITCKASQDVSTAVAWYQQKPGQSPKLLIYSASYRYTGVPDRFTGSGSGTDFTFTISSVQAEDLAVYYCQQHYSTPWTFGGGTKLEMKR
notes: as for B7
B14: I23RB45 (antibody, mouse IgG2a, kappa, V domains shown)
VH: QVTLKESGPGILQPSQTLSLTCSFSGFSLSTYGMGVSWIRQPSGKGLEWLAHIYWDDDKRYNPSLKSRLTISKDTSNNQVFLKITSVDTADTATYYCAQRALPLLGQKAPFDYWGQGTTLTVSS
VL: DIVLTQSQKFISTSVGDRVSITCKASQNVRTAVAWYQQKPGQSPKLLIYLPSNRHTGVPDRFTGSGSGTVFTLTISNVQSEDQADYFCLQHWNYPLTFGAGTKLELKR
notes: as for B7
B15: I23RB260 (antibody, mouse IgG2a, kappa, V domains shown)
VH: QVQLVQSGAEVKKPGSSVKVSCKASGGTFSSYGISWVRQAPGQGLEWMGGIIPIFGTANYAQKFQGRVTITADESTSTAYMELSSLRSEDTAVYYCARDFGWSLWFDYWGQGTLVTVSS
VL: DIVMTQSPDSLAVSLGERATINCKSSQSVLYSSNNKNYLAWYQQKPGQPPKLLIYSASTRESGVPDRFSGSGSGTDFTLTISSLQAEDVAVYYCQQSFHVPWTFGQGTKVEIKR
notes: as for B1

Residue numbers refer to the chain shown, from its start.

The first assay deals with T1, Recombinant human IL-23 receptor …. Kind of assay: SPR Biacore 8K, supernatant, analysis 1. The method, then:
(§1) Affinity by SPR using Biacore 8K. Affinity measurements using Surface Plasmon Resonance (SPR) were performed using a Biacore 8K system (Cytiva). […] Approximately 9000-10000 RU (response units) of mAbs were immobilized. The kinetic experiments were performed at 25° C. in running buffer 1× of (HBS-P+ Buffer 10× (Cytiva #BR100671)+100 μg/ml BSA). To perform kinetic experiments, approximately 150 RU of mAbs were captured followed by injections of human IL-23R or rat IL-23R at concentrations ranging from 0.8 nM to 500 nM (in a 5-fold serial dilution). The association phase was monitored for 3 minutes at 50 μL/min, then followed by 30 minutes of buffer flow (dissociation phase). […] The collected data were processed using Biacore insight Evaluation software (Version 3.0.12.15655). The kinetic analysis of the data was performed using a Langmuir 1:1 binding model. The result for each mAb was reported in the format of Ka (On-rate), Kd (Off-rate) and KD (equilibrium dissociation constant).
(In general: In SPR one partner is held on a chip, and binding of the other changes the refractive index at the surface.)
What is called Kd is a measure of binding affinity in units of concentration. The koff is a measure of how fast the partners let go of each other. As a reminder, the kon is a measure of how fast the partners come together. For the molecule B1, the Kd was 18.4 nM, the off-rate constant (koff) was 0.000384 s⁻¹ and the kon turned out to be 20900 M⁻¹ s⁻¹.
For B2 the same measures were 17.9 nM, 0.000847 s⁻¹ and 47400 M⁻¹ s⁻¹.
For B3 the same measures were 9.05 nM, 8.01e-05 s⁻¹ and 8850 M⁻¹ s⁻¹.
For B4 the same measures were 22.5 nM, 0.000402 s⁻¹ and 17900 M⁻¹ s⁻¹.
As for B5, the Kd is 13.4 nM, the koff is 0.000752 s⁻¹ and the kon came to 55900 M⁻¹ s⁻¹.
As for B6, the Kd worked out at 25.2 nM, the koff worked out at 0.000596 s⁻¹ and the kon is 23600 M⁻¹ s⁻¹.
For B7 the same measures were 18.9 nM, 0.00123 s⁻¹ and 65500 M⁻¹ s⁻¹.
For B8 the same measures were 1.08 nM, 0.000226 s⁻¹ and 210000 M⁻¹ s⁻¹.
For B9 the same measures were 5.15 nM, 0.00011 s⁻¹ and 21400 M⁻¹ s⁻¹.
In the case of B10, the dissociation constant (Kd) was 5.7 nM, the koff is 0.000107 s⁻¹ and the kon is 18800 M⁻¹ s⁻¹.
In the case of B11, the Kd stood at 84.5 nM, the koff was found to be 0.0274 s⁻¹ and the kon is 324000 M⁻¹ s⁻¹.
For B12 the same measures were 150 nM, 0.0302 s⁻¹ and 201000 M⁻¹ s⁻¹.
For B13 the same measures were 263 nM, 0.0493 s⁻¹ and 188000 M⁻¹ s⁻¹.
For B14 the same measures were 21 nM, 0.00332 s⁻¹ and 158000 M⁻¹ s⁻¹.
In the case of B15, the Kd stood at 4.75 nM, the koff came out at 8.72e-05 s⁻¹ and the on-rate (kon) turned out to be 18400 M⁻¹ s⁻¹.

Another assay shares this target. Kind of assay: SPR Biacore 8K, supernatant, analysis 2. The protocol:
as §1
Regarding B7, the Kd came to 8.55 nM, the koff was 0.000781 s⁻¹ and the kon amounted to 91300 M⁻¹ s⁻¹.
For B8 the same measures were 1.43 nM, 0.000178 s⁻¹ and 124000 M⁻¹ s⁻¹.
For B14 the same measures were 22.5 nM, 0.00456 s⁻¹ and 203000 M⁻¹ s⁻¹.

(Values after patent publication US20250179196A1 (Janssen / Centocor, published 2025).)
